Results taken from PMC10372576 (Proceedings of the National Academy of Sciences of the …, 2023).

Molecular target: T1, S.c. Mon1–Ccz1 complex (wild type) (Saccharomyces cerevisiae, UniProt P53129;P38273)
T1 sequence 1: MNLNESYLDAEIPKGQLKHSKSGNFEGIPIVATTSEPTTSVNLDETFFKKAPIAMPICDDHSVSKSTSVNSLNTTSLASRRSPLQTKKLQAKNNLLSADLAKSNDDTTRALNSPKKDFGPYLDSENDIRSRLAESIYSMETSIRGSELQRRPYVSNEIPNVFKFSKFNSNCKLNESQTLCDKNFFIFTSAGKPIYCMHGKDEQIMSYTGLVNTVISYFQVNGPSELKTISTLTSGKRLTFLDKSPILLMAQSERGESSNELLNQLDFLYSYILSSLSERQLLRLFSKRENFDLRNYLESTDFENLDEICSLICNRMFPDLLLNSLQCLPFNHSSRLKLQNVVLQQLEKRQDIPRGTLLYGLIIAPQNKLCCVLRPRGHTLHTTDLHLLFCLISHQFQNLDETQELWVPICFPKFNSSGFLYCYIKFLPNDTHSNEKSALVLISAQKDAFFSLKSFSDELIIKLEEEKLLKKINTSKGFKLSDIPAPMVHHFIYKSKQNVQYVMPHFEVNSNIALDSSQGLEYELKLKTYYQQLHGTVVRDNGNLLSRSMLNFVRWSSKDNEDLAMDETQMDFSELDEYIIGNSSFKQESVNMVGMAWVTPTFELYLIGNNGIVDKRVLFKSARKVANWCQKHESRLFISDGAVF
T1 sequence 2: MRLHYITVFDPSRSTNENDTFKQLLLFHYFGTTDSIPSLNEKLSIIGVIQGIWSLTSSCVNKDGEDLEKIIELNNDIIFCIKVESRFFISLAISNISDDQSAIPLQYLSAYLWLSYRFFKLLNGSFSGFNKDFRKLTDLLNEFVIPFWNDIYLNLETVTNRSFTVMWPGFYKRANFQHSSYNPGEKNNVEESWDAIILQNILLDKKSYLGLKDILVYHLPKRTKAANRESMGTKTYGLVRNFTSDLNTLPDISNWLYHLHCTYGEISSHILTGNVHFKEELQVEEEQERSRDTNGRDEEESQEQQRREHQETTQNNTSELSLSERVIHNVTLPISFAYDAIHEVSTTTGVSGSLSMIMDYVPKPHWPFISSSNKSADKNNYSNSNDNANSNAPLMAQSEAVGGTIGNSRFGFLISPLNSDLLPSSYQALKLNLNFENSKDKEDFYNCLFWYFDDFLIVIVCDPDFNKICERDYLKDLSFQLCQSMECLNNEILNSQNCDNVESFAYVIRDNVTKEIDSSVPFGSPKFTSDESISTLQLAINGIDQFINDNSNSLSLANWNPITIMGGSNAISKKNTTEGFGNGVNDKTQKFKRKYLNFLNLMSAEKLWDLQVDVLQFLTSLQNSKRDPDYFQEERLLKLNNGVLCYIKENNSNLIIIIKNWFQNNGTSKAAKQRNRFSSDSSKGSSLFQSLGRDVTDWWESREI
Assay: pull-down

B1: GST-Ypt10 (natural protein)
chain: MEATIKVVLLGDSSVGKTSIVTRLKSGKFLAKHAATIGAAFITKTIEVPSNDSSTEKRIHMEIWDTAGQERYKSLVPMYYRDANIALIVFELGDVSSLQCAKTWFQDLQDRAQGTQVIIVGNKYDLVCEEHSGEVTIPAELQGLPYVAVSAKTGYNFDTLNKIIISLVPESQFKTLSKNNEQGNILEINKKKSGSGCIC
binding result: binds
